Measurements reported in article PMC5446404.

Biological target: recombinant human fortilin (Strep-tag II), biotinylated (human) (UniProt P13693)
Experiment: BLI
Settings: domain or fragment

GST-IRE1α-L (aa 1-70), sequence (O75460 19-70): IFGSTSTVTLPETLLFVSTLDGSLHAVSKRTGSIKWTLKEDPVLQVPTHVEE
recombinant human fortilin (Strep-tag II), biotinylated (human), sequence (P13693 whole entry): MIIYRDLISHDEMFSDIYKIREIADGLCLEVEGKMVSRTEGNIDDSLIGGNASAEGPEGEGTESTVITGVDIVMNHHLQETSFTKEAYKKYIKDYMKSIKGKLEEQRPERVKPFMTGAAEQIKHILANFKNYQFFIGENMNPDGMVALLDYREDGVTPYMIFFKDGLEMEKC

GST-IRE1α-L (aa 1-70) (from UniProt O75460 19-70)
Kd: 18 mM
